Laboratory results as given in US5780289.

target: E. acervulina merozoite antigen (whole merozoites coated on the plate, or sonicated merozoites)

| Substance | 3H-thymidine incorporation in Dcpm |
| --- | --- |
| peripheral blood leucocytes of control chickens (cells without a defined receptor) | 14 Dcpm |
| peripheral blood leucocytes of chickens immunised with purified Eam100 (cells without a defined receptor) | 1190 Dcpm |
| peripheral blood leucocytes of chickens immunised with purified Eam20 (cells without a defined receptor) | 922 Dcpm |
| peripheral blood leucocytes of chickens immunised with purified Eam200 (cells without a defined receptor) | 692 Dcpm |
| peripheral blood leucocytes of chickens immunised with purified Eam45 (cells without a defined receptor) | 716 Dcpm |
